Fraction of T cells with BFP reporter expression data for one substance are collected here from patent US20250243257A1.

This assay deals with surface GFP (GFP fused to the PDGF transmembrane domain) [GFP: P42212]. The experiment in a line: cell-based or functional assay.

On to “α-GFP nanobody (LaG16_2) synNotch Gal4VP64 receptor (from UniProt Q01705 1427-1752)”, for which the fraction of T cells with BFP reporter expression at 24 hours was more than 50%.
